Results as given in paper PMC2714705 (Structure (London, England : 1993), 2009).
Where “and” joins values, the source holds several entries; their conditions need not be identical. Equal values may be shown once.

T1: P22 assembly-naïve portal, full length His-tagged gp1 (bacteriophage P22), P26744
T1 chain: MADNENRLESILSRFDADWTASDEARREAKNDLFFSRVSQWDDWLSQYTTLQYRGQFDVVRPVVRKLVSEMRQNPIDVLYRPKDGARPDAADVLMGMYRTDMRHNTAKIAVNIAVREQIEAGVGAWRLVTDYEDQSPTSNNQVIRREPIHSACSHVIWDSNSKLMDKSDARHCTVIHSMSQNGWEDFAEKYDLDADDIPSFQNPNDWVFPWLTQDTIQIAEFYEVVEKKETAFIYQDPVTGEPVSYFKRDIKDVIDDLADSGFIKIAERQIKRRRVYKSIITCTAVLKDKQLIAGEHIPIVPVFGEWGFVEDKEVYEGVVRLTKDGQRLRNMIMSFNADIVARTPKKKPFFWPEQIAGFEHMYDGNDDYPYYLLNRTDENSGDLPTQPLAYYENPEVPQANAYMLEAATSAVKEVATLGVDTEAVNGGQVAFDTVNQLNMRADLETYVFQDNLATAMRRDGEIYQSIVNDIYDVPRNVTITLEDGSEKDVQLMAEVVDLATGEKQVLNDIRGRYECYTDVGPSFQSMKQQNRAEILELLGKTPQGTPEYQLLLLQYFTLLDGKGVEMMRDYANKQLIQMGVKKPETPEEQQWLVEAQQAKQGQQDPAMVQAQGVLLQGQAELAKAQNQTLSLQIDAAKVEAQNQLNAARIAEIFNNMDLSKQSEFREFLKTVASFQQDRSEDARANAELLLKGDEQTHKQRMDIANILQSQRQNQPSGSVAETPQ

T2: P22 portal protein gp1 in the tail machine purified from virions (bacteriophage P22, UniProt P26744 1-725)
T2 sequence (looked up): T1 chain

B1: P22 assembly-naïve portal, full length His-tagged gp1, P26744 1-725 (natural protein)
chain: T1 chain
B2: P22 gp26 tail needle (natural protein, bacteriophage P22)
chain: MADPSLNNPVVIQATRLDASILPRNVFSKSYLLYVIAQGTDVGAIAGKANEAGQGAYDAQVKNDEQDVELADHEARIKQLRIDVDDHESRITANTKAITALNVRVTTAEGEIASLQTNVSALDGRVTTAENNISALQADYVSKTATTSQSLASPLNVTTSYSVGGKKVLGARQTGWTAATGTANKGVFDADLTFAVSDTYTQSEIQAIANALITERRRTKALEDALRAHGLID
B3: P22 gp4 (natural protein, bacteriophage P22, UniProt P26746 1-166, looked up)
chain: MQIKTKGDLVRAALRKLGVASDATLTDVEPQSMQDAVDDLEAMMAEWYQDGKGIITGYVFSDDENPPAEGDDHGLRSSAVSAVFHNLACRIAPDYALEATAKIIATAKYGKELLYKQTAISRAKRAPYPSRMPTGSGNSFANLNEWHYFPGEQNADSTTPHDEGNG

Tests used:
Test in all cases: cryo-EM structure
[1] = target: T1, P22 assembly-naïve portal, full length …; conditions: remark: other sources report otherwise
[2] = target: the molecule itself
[3] = target: T2, P22 portal protein gp1 in the tail …
[4] = target: P22 gp9 tailspike (bacteriophage P22, UniProt P12528 1-667)

| Binder | stoichiometry N [1] | binding result [2] | binding result [3] | binding result [4] |
| --- | --- | --- | --- | --- |
| B1 | 11 and 12 | – | – | – |
| B2 | – | binds | – | – |
| B3 | – | binds | binds | binds |
